To fix the notation:
B1: Glycophorin A TM domain (SNGpATM) TMD (protein)
chain: GERVQLAHHFSEPEITLIIFGVMAGVIGTILLISYGIRRLIKKSPSDVKPLPSPDTDVPLSSVEIENPETSDQ

The data set “steric trap, PE/PC” concerns the molecule itself. Description: steric trap, PE/PC.
The data set “steric trap” deals with the molecule itself. Description: steric trap.
Data set [1] deals with the molecule itself. Kind of data set: steric trap, PC bilayers, L/P 1000.
Data set [2] concerns the molecule itself. Description: steric trap, PG/PC.
The data set “steric trap, DM micelles” deals with the molecule itself. Kind of data set: steric trap, DM micelles.
Data set [3] concerns the molecule itself. Kind of data set: steric trap, PG/PC. The source holds these as a separate data set.
Data set [4] deals with the molecule itself. Kind of data set: steric trap, PG/PC. The source holds these as a separate data set.
Data set [5] deals with the molecule itself. Kind of data set: steric trap, PC bilayers, L/P 1400-1600, no IMP.
The data set “steric trap, PS/PC” concerns the molecule itself. Kind of data set: steric trap, PS/PC.
The data set “steric trap, PE/PG/PC” deals with the molecule itself. Description: steric trap, PE/PG/PC.
The data set “steric trap, lysoPC/PC” concerns the molecule itself. Kind of data set: steric trap, lysoPC/PC.
Data set [6] concerns the molecule itself. Kind of data set: steric trap, E. coli lipid bilayers, L/P 1500.
The target in data set [7] is B1. Description: steric trap, PC bilayers, L/P 1400-1600.

Here are results for two molecules from publication PMC3140635 (2012).

For B1, the Kd was found to be 0.21 pM in the data set “steric trap, PE/PC”; 11 nM in “steric trap”; 1.5 pM in data set [1]; 14 nM in the data set “steric trap, PG/PC [2]”; 170 nM in “steric trap, DM micelles”; 32 nM in “steric trap, PG/PC [3]”. Also, the Kd in “steric trap, PG/PC [4]” came to 47 nM; in data set [5], 3 pM; in the data set “steric trap, PS/PC”, 25 nM; in “steric trap, PE/PG/PC”, 5.1 nM; in “steric trap, lysoPC/PC”, 6 nM; in data set [6], 10 nM.

B2: Glycophorin A TM domain (SNGpATM) TMD (protein)
chain: GERVQLAHHFSEPEITLIIFGVMAGVIGTILLISYGIRRLIKKSPSDVKPLPSPDTDVPLSSVEIENPETSDQ
modifications: E. coli inner membrane proteins at mass ratio 1.0
The molecule B2 came in with a Kd in [7] of 9.2 nM.

The Kd is the free concentration of one partner at which half of the binding sites on the other are occupied at equilibrium, for simple one-to-one binding. A lower Kd goes with higher affinity.
